Assay results taken from PMC5704011.
Where two headings read alike, the source gives them in different places. Values belong to the substance of their own block, whether it stands above or below them.

Legend:
PDGFRα (Homo sapiens) [1] = target: PDGFRα (Homo sapiens) (UniProt P16234); conditions: cited from earlier work
Target sequence in this assay (P16234 24-528): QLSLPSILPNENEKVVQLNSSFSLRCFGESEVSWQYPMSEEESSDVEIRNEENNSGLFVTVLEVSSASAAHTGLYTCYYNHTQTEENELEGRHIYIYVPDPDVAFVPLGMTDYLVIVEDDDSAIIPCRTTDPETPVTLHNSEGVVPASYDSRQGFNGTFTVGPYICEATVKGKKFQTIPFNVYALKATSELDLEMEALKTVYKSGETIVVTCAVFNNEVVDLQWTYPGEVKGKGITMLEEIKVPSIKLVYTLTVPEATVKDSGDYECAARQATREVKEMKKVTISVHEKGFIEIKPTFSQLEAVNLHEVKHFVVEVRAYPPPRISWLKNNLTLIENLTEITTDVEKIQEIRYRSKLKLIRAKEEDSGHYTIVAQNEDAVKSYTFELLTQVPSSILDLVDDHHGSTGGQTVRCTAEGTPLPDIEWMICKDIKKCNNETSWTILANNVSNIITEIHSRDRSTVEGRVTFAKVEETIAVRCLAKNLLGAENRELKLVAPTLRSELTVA

PDGFRα (Homo sapiens) [2] = target: PDGFRα (Homo sapiens) (UniProt P16234); conditions: cited from earlier work; remark: listed apart in the source
Target sequence in this assay (P16234 24-528): as above

VEGFR2 (Homo sapiens) [3] = target: VEGFR2 (Homo sapiens) (UniProt P35968); experiment: SPR; conditions: cited from earlier work
VEGFR1 (Homo sapiens) [4] = target: VEGFR1 (Homo sapiens) (UniProt P17948); experiment: SPR; conditions: cited from earlier work
PDGFRα (Homo sapiens) [5] = target: PDGFRα (Homo sapiens) (UniProt P16234); experiment: SPR; BIAcore 3000, 25 °C, CM5 chip; receptor immobilised by amine coupling (~200-500 R.U.); ligand injected at 10, 20 and 40 nM, 30 uL/min, 10 min dissociation; HBS-EP pH 7.4 (10 mM HEPES, 3 mM EDTA, 150 mM NaCl, 0.005% TWEEN-20); angiopoietin-4 reference cell subtracted; global 1:1 Langmuir fit; χ2-to-Rmax > 1.0 or negative association curves taken as no true interaction
Target sequence in this assay (P16234 24-1089): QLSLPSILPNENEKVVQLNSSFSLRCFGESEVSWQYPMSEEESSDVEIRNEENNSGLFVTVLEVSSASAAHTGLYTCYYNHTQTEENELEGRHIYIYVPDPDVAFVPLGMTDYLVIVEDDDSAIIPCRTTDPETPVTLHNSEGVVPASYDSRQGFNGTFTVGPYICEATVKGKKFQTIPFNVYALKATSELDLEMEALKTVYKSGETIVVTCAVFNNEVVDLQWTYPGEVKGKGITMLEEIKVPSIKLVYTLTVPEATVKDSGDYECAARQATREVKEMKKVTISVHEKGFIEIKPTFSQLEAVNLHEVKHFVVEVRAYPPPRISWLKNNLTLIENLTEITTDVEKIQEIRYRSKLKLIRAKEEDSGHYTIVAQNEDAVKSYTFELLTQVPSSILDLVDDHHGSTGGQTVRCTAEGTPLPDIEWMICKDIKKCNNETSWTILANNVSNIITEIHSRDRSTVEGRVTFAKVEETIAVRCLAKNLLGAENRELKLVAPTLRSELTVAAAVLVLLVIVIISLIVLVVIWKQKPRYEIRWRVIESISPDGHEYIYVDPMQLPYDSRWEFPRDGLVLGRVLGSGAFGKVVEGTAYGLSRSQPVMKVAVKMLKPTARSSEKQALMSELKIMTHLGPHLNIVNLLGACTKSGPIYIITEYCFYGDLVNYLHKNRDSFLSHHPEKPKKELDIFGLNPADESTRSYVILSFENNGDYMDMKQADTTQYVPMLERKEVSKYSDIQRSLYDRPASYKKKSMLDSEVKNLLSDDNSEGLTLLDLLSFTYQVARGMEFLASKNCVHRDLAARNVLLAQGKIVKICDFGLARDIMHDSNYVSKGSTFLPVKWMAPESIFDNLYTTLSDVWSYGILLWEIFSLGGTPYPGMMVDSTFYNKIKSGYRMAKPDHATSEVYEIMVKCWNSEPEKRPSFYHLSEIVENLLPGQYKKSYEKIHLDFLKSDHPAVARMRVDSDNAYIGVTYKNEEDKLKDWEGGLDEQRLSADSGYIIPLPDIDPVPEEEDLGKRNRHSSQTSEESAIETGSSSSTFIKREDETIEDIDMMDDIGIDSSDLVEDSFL

[6] = target: human recombinant PDGFRβ (human) (UniProt P09619); experiment: as above
VEGFR2 (Homo sapiens) [7] = target: VEGFR2 (Homo sapiens) (UniProt P35968); experiment: as above
Target sequence in this assay (P35968 20-764): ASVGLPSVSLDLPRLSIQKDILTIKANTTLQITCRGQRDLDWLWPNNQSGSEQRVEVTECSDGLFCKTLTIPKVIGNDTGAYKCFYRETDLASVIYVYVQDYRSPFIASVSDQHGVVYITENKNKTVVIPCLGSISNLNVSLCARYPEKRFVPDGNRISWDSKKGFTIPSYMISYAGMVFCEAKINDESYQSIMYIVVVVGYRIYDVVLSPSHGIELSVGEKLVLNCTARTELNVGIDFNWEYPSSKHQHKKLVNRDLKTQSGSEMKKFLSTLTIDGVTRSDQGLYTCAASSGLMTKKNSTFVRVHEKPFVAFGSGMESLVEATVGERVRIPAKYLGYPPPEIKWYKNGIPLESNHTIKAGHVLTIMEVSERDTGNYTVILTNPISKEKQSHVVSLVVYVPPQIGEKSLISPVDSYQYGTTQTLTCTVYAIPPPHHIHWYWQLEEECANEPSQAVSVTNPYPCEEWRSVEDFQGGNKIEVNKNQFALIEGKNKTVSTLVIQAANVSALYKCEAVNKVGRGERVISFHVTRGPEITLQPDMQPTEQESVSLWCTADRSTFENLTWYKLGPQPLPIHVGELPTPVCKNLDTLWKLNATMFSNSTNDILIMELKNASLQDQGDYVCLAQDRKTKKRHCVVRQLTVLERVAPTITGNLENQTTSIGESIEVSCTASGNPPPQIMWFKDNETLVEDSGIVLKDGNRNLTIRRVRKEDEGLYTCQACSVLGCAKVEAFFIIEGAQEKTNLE

VEGFR1 (Homo sapiens) [8] = target: VEGFR1 (Homo sapiens) (UniProt P17948); experiment: as above
Target sequence in this assay (P17948 27-758): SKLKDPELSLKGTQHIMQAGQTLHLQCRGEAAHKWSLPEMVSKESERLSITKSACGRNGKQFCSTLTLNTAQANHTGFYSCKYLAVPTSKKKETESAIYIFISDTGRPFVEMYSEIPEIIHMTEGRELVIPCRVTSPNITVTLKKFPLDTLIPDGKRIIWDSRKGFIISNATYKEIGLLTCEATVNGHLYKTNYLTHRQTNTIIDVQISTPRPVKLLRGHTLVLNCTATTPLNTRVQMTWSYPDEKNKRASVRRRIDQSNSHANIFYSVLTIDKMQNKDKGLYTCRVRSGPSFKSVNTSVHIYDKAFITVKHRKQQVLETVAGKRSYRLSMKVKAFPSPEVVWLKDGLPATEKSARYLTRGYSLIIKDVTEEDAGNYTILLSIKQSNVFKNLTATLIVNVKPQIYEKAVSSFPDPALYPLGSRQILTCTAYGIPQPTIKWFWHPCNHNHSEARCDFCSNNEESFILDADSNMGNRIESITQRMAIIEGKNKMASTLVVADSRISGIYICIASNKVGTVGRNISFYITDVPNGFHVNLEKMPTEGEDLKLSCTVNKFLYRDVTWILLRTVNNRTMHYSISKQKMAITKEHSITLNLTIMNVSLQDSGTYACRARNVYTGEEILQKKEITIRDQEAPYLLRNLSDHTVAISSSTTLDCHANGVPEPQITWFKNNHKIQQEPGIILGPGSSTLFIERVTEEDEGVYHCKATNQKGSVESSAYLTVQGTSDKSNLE

VEGFR2 (Homo sapiens) [9] = target: VEGFR2 (Homo sapiens) (UniProt P35968); experiment: SPR; BIAcore 3000, 25 °C, CM5 chip; receptor immobilised by amine coupling (~200-500 R.U.); ligand injected at 40, 20 and 10 nM in HBS-EP pH 7.4 (10 mM HEPES, 3 mM EDTA, 150 mM NaCl, 0.005% TWEEN-20); angiopoietin-4 reference cell subtracted; global 1:1 Langmuir fit; χ^2-to-Rmax < 1.0 taken as a true interaction
Target sequence in this assay (P35968 20-764): as the sequence (P35968 20-764) above

VEGFR1 (Homo sapiens) [10] = target: VEGFR1 (Homo sapiens) (UniProt P17948); experiment: as above
Target sequence in this assay (P17948 27-758): as the sequence (P17948 27-758) above

human recombinant PDGFRβ (human), sequence (P09619 33-1106): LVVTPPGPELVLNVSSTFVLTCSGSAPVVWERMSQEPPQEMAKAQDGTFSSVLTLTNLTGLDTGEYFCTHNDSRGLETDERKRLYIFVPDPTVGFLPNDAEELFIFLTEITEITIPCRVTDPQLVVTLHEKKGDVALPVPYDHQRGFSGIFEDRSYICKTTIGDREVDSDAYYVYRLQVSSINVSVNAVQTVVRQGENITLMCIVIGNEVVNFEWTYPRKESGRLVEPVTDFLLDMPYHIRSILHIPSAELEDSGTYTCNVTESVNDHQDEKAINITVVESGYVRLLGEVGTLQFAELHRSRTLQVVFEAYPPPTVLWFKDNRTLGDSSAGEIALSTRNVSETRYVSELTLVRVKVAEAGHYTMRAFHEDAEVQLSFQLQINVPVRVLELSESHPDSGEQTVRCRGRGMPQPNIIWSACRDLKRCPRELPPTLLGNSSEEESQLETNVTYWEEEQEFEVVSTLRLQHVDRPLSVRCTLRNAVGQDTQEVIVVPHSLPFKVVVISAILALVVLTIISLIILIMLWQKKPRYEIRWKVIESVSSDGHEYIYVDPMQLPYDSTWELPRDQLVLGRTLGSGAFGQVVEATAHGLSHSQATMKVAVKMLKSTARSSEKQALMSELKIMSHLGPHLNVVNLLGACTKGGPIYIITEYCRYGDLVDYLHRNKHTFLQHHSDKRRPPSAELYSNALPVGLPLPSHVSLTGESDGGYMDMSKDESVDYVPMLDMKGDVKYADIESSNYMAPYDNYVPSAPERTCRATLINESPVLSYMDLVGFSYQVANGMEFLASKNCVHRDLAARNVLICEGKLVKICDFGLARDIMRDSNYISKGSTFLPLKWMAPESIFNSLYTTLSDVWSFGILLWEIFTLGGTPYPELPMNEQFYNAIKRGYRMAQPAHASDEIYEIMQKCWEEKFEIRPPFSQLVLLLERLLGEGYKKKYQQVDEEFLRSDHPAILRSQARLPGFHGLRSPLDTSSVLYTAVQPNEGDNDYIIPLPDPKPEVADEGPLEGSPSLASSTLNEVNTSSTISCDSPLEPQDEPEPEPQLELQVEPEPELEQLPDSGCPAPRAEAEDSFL
VEGF-A, sequence (P15692 whole entry): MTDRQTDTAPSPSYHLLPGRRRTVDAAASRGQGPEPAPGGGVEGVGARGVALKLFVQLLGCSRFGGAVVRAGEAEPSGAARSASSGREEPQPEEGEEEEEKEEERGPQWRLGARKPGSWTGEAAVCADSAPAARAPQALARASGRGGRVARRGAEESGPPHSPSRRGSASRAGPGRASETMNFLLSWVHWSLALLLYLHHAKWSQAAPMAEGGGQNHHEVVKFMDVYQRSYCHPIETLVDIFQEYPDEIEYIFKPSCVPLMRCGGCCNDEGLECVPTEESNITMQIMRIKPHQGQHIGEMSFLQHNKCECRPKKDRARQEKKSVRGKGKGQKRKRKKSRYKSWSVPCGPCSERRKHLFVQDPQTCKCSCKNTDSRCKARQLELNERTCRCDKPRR

Substance: PDGF-AA (from UniProt P04085)
Kd (PDGFRα (Homo sapiens) [1]): 134 nM

Substance: PDGF-BB (from UniProt P01127)
Kd (PDGFRα (Homo sapiens) [2]): 150 nM

Substance: VEGF-A (from UniProt P15692)
Kd (VEGFR2 (Homo sapiens) [3]): 0.052 nM
Kd (VEGFR1 (Homo sapiens) [4]): 0.0075 nM

Next, values leading:

koff (PDGFRα (Homo sapiens) [5]): 0.00045 s⁻¹
kon (PDGFRα (Homo sapiens) [5]): 680 M⁻¹ s⁻¹
Substance: human recombinant PDGF-AA (from UniProt P04085 87-211) (ligand)

koff (PDGFRα (Homo sapiens) [5]): 0.001 s⁻¹
kon (PDGFRα (Homo sapiens) [5]): 1200 M⁻¹ s⁻¹
koff [6]: 0.0029 s⁻¹
kon [6]: 1300 M⁻¹ s⁻¹
Substance: human recombinant PDGF-AB (from UniProt P04085 87-211; P01127 82-190) (ligand)

koff (VEGFR2 (Homo sapiens) [7]): 9.5e-06 s⁻¹
kon (VEGFR2 (Homo sapiens) [7]): 970000 M⁻¹ s⁻¹
koff [6]: 4e-06 s⁻¹
kon [6]: 12000 M⁻¹ s⁻¹
koff (VEGFR1 (Homo sapiens) [8]): 4e-07 s⁻¹
kon (VEGFR1 (Homo sapiens) [8]): 400000 M⁻¹ s⁻¹
Kd (VEGFR2 (Homo sapiens) [9]): 0.0098 nM
kon (VEGFR2 (Homo sapiens) [9]): 1e+06 M⁻¹ s⁻¹
Kd (VEGFR1 (Homo sapiens) [10]): 0.001 nM
Substance: human recombinant VEGFA (from UniProt P15692 1-395) (ligand)
